What was measured:
[1] = target: T1, NM23-H2 wild type (UniProt P22392 1-152); test: EMSA
[2] = target: NM23-H2 H118C (UniProt P22392 1-152, H118C); test: EMSA with FRET detection
[3] = target: NM23-H2 K12A (UniProt P22392 1-152, K12A); test: EMSA with FRET detection
[4] = target: T1, NM23-H2 wild type; test: EMSA with FRET detection

T1 sequence (P22392 whole entry): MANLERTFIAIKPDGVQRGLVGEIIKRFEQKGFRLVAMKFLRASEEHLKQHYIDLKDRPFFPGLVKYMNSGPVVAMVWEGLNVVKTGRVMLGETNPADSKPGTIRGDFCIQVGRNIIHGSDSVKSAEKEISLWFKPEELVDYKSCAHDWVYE
Sequence of NM23-H2 H118C (P22392 whole entry H118C): as the sequence (P22392 whole entry) above, with H118C counted along it
Sequence of NM23-H2 K12A (P22392 whole entry K12A): as the sequence (P22392 whole entry) above, with K12A counted along it

Binder	binding result [1]	binding result [2]	binding result [3]	binding result [4]
TGGGGAGGGTGGGGAGGGTGGGGAAGG (structured_DNA) [c-MYC NHE G4 27-mer]	binds	–	–	–
TGGGGAGGGTGGGGAGGGTGGGGAAGG (structured_DNA) [FG27T]	–	binds	binds	binds

Source: PMC2615625
